Test results taken from the DeepSol protein solubility set.

Assay: soluble on expression in E. coli; label from the status in PepcDB or PDB records
In the case of “MGSDKIHHHHHHMSDKTKELRNKYNSKNRHKNFGPCLRKVHIEGFRGVQSADLELEFPITAISGLNGSGKSTVGQLAICAYKKPDKSMTYKRLYIKDFFPVSPADPKPISDSAKVVYFYETDDYQKPKEVTVSRVKSSWSGYKRQPERYCYYIGFTVYLPKVERRDLSVYAGVNLQFTEKRDIEAEVVKKMARIIGHKYENVAFQGVSHNGKESEVGIAYRLGYSYSENNMGFGEGRILYTIDKLESSPEQSLFILEEPETSLHESAQHEFAKYLLDVCNRRHHQIILSTHSSVIVNALPPESRKLMIRDEGGVDIRNKISSGQLRSILSSGHVRSLDICVEDNFAKVLLIEVIRMKRKALLKIVEIHAIGSTDAVREAVRILKKTGKKAIAVRDADIGPSEKEGLYSFPGNKPPEKEVFEHSAVKAFFKSKYDLDVEWFFQYKNVSDHHYYAKCIASEIASDESVIQTSAIEEYLKHVNNNFDYLIDAIEKELDNHN”, the “soluble on expression in E. coli” value is reported as “not soluble”. In the case of “MGSDKIHHHHHHMSDPGQPTLDQLRVFIAVVETGSFAAAARKLNRATSVISYTIANLEAQLGVTLFDRLSTKKPQLTLEGRTVLAEARSVSNGIDNLRAKVKSMLRGIEPEVHLALDVMLPASRVMDALKAFRKEFPSVSLRLYVEALGAVTQIVLNRTATVGISGPLDVDVLGLERIGVGFVQLVPVAAPDHPLAGGSHAPGAARSHIQLVLTDRSPLTQGHEFAVVGTHTWRLADLGAKHMLLKEGIGWGNMPEPMVRDDLADGRLVQLDLPDCKGGPYRLQAIYRTDTPPGPAGRFLIEHFQAQDAKTPTTAW”, the “soluble on expression in E. coli” value is reported as “not soluble”. For “MGSDKIHHHHHHMSDQANQGDLEIRPSPLLKVINDLHSKYKSLKEGIVANYIPELAKVNPDLFSISIVTVDGQVYQVGDYQQLFTIQSISKVFAYGLALEDHGRDYVLTRVGVEPTGEAFNAIILDEQSKRPYNPMVNAGAIATTSLIKGAGATERLNRVLEMFRRYIGHDVFVDISVFTSERSTGHRNRAMAHLMLNFGMIDRNIEEALDLYFQQCAVMVNCHDLAVMAATLANRGVNPITGEQAVNSRYIKDILSVMYTCGMYNFAGEWAYKVGIPAKSGVCGGIMAVVPNLMGIAVFSPPLDIRGNSVRGVKVCEELSQQLGLHLFECMKVGNGEWGVGNCEC”, the “soluble on expression in E. coli” value was “not soluble”. In the case of “MGSDKIHHHHHHMSDVLSQEEINQLIEALMKGELKEEDLLKEEEEKKVKPYDFKRPSKFSKEQLRTFQMIHENFGRALSTYLSGRLRTFVDVEISIDQLTYEEFIRSVMIPSFIVIFTGDVFEGSAIFEMRLDLFYTMLDIIMGGPGENPPNRPPTEIETSIMRKEVTNMLTLLAQAWSDFQYFIPSIENVETNPQFVQIVPPNEIVLLVTASVSWGEFTSFINVCWPFSLLEPLLEKLSDRFWMMGRKPEKVEERMEELRKASQKIPVTVQAVIGETELRLKEILDLEVGDVIRLGTHYKDEIRIDVEGRPKFRGIPGVFKGKYAVKVTGEFTNGGEYE”, the “soluble on expression in E. coli” value is reported as “not soluble”. In the case of “MGSDKIHHHHHHMSDVYDYLKESLPGDHSRQATAEAVLQARVAKGFAPAKVLDFGCGDGRSIDLFRRMLPQVDWTGVDIEASPEVASRRRQDGRFVTYDGYELPFPDRSFPLVYSHQVLEHVRKPELALREIARVLEPDGLFIGQTSQFEPYHSYSLWNFTVYGFKRIVEDAGMQLAELRPGIDGFTLMRRTYEGRPPEMSKYFSQESPINEEIEKAAGDKRTQVRNFRKLLFCGQFIFVVQLR”, the “soluble on expression in E. coli” value is reported as “not soluble”. With “MGSDKIHHHHHHMSEKTLLELPKKFMEALMAPFIGREEEAKVITLALLSKEHVILIGEPGTAKSALARRAAELLNAKFFMYLLTKYTEPAELFGALDINALKDGQYKRITKDRLPESQIAFLDEIFNANSAILNALLSLLNERVIYDGYNVIKVPLRTLISASNRVPDEPELEALYDRLLLRHYARPVGEELWKQLLDATWEIEFTNRWAVKEPIMNIEHLDKLYSYLSQVDLSGVKNKLLKLYAMLEEKGIHLSDRRKGKVLKVVSAHAILNSRLKATEEDLIVLKYIAPREIDDFEKVAALLSEELKTPIKYMKELNEIYNNIKEAAKYVEAANESDPRLIELIRSLRATRDRIVALGKESGDEKVEEFSKEVLSEIDKLIEKVARKLGIYP” the “soluble on expression in E. coli” value was “not soluble”. For “MGSDKIHHHHHHMSGKIAFVTGATGLLGSNLCRALVSQGWQVKGLVRSLDKAKRFLGDSNIELIQGDIEDVPAFTQALKGVDVVFHTAAFFREYYQPGSDWQKMKRINVDTTIELLQAAEAQGVAKVVFTSSSGVIQTDPHQAATETAPYNKFAEQNLYFKTKILAEQEIYRFLNTSQIDVVMILPGWMMGPGDAAPTSAGQLVLDLLAGKLPGVINGGAALTDVRDVATVMVKAAEKGESGGRYIVAGPLTTMKEIALELEAISGVKAPRMEIPDGMAIAIAWFLEKFTGLTGGVNPMPLAGIQTLLEKAKLSSAKAERDLGATFRPLRETLKDTVLWYQSQGYV”, the “soluble on expression in E. coli” value was “not soluble”. For “MGSDKIHHHHHHMSGSKIKIALFNDTDFRVNIGCRLTSQGLKQQILDAFPAAEITSIGFNFAAFRKEFPKSTSAGGYELSDIETRLSTAYGEGAVDHIRAADFVILQPEGSLDHRTTAEGLATFFTPILTARKLGKPFAVLNGTIPIYEGERSDYLKGLFRELGHVAARDEISAEYYGIEFLADAAFLRISPAPVADRDGCLITTGARNNAEEDVEILKAALKICEAWKLRPVVLTHAVERFSPYEAEIIGRGGIFAETASIEHAAETISKCRLHIGGRYHMAIFSLLCNVPSLLFDVKTHKNQWLERYSPLITLVHPHTDLDAAAAAVLSGGVSQGHPGSTAAEKYVHFLKRAMAEQPL”, the “soluble on expression in E. coli” value was “not soluble”. With “MGSDKIHHHHHHMSIEIRQVNNLRKKRQFFQYNYQLYKDDPYWVSWPVANLVKMFDPEECGFYEHGILEAWLAYQNGKIVGRIAGSIDGTYNQTYGVQTAFFGFYECIDDQDVSKILFEQVENWAQSYGMTQLLGPFSLSPIYGAGMLIAGFDDSPYVAMPYNRSYYPNQLESSGFKKAKDYNAFRIKGELTIPEFLTKNAQRWRNKRITYRQLNPDQLAQESDLVCDLYNDGFAGQWGYTYIERSEFYQLVLDWIQVIDPRLFLFVLIGDNPVGFGMLVPDVFQILHQTKTLPGLLRYLGRRIFTFGRENEITRYRLDSLCIRKQYQSLGLGVLLWCEIMQQYLNSNYTEIEFSPILEDNTMAQTLLLKLGAERSKVYRVFEKSWCN” the “soluble on expression in E. coli” value was “not soluble”. With “MGSDKIHHHHHHMSIIDSQESTLYQQLAETFATAIHQGTLAPGSRLPSIRRVAGSHQVSVNTVLNAWRILEDRGLIEARPQSGYFVRGRLPSLTESKPHRAQVIVPGSEKLDLIDTVFAAQTHPDYTNISLACPQHTDFYPTEKISRIAASLLRRQPELIGRYALPPGSERLRREVARRAMDLGMTLTREDITITHGCMEALQLALRTVTQPGDCVGLETPTYFYLFPLLASLGLKTVEIPTDPQRGLSLDALELLLSENRLQAIIAMPNAQNPLGCSMTLADKKRLAKLVNDYQVPLIEDGLYSELQFTWPLSPTVKAFDREGWVIYCSSFTKTLAPDFRIGWMASGRFRAQVARLKAVSSMAESALLSETLAQFLESGGYDHHLRTLRRRYAAQMDEARGLIARHFPQGTRATQPQGGFVFWLELPGGVDGVELFHRLLQEKICVTPGELYTLSGRCKHALRLSCCYPFDERYTYALKRAGALACEMSGIGPGNEG” the “soluble on expression in E. coli” value was “not soluble”. With “MGSDKIHHHHHHMSKKIIDEVIDILEDKKYTYTMIEYPEHNRKSVDIVLNSKEPTLIRVSEDKITKEEISDLKKIAVSTLTASLVVTNEEEEDIVSVKADNVFAISPEGFKKVINGEKIFLYRTRGGIFIKIRNYILKHKREEMGYSIGDVAKFLGVSRKAIYDYEKGDSDVSLEVAEKLIDLFGDDIIGDVIWDSIKSKKEILEEGVAEFSPENFKAKLIYKLKESGLNALSLKLTAADLIVKDSDNNRYLVTIENKDYNKSMKKFYEAKKLASYTKSELVIIIRTSKMLKECEDLGYKTYEENDIHSLIDEIKGSNGRQG” the “soluble on expression in E. coli” value was “not soluble”. For “MGSDKIHHHHHHMSKLIVPQWPQPKGVAACSSTRIGGVSLPPYDSLNLGAHCGDNPDHVEENRKRLFAAGNLPSKPVWLEQVHGKDVLKLTGEPYASKRADASYSNTPGTVCAVMTADCLPVLFCNRAGTEVAAAHAGWRGLCAGVLEETVSCFADNPENILAWLGPAIGPRAFEVGGEVREAFMAVDAKASAAFIQHGDKYLADIYQLARQRLANVGVEQIFGGDRCTYTENETFFSYRRDKTTGRMASFIWLI”, the “soluble on expression in E. coli” value was “soluble”. In the case of “MGSDKIHHHHHHMSKVIITCAVTGAIHTPSMSRYLPVTPEEIIEASVGAAEAGAAIIHLHARDPVTGKPDQSPDAFGRFLPQIKARTDAVLNITSGGSPYMTIEERIQPSMRFAPEVASLNMGSMNFALFPMLARFKEFKHAWEREALEASRDLIFRNTFKDIEYALAQCAANDTRFEFECYDVGHLYNLAHFVERGLVKAPFFVQTVFGILGGIGTHPEDVSHMKRTADRLFGNDYRWSVLGAGKDQLRLAGMSASMGGNVRVGLEDSLWLGRGTLAESNAAQVRQARQIIEGLGLEIASPNEAREILQLKGIEKVKF”, the “soluble on expression in E. coli” value is reported as “not soluble”. In the case of “MGSDKIHHHHHHMSKVVKFGGSSVANSEQFKKVKQIILADPDRKYVVTSACGKSGQEDHKVTDLLYLCAAHITYDVSYESIFQSIVDKYMEIKRSLGLKIDLAGEFAKIRQNMAQNLNLDYLVSRGEYLTGLCLAEYLDADFRDASQVIRFHYDGSIDLDKSQELLKAQVDPGRRVVIPGFYGSLPNGVIKVMSRGGSDITGSIVANAFDVDVYENWTDVSGFYVADPRIIKDPVQIPRVTYSELRQMSYMGANVLHDDAVFPVRQKNIPINVRNTNHPENPGTMIMNDCSELDAQERPHVITGITGKQDFTVITMVKSHVSAEAGFLRKVLAVFEKFQISIESVPVTVDTFSIVVQTKKIERYLYEIVAELQQDLHLDDIQVESQQAMLAVVGRAMRQMPGMSGKILSTLGDQQINIRTINQACDEQSIVIGVNNQDLVPAIKAIYQQFISEERVER”, the “soluble on expression in E. coli” value is reported as “not soluble”. In the case of “MGSDKIHHHHHHMSLASVFNIAGSGMSAQSTRLNTVASNIANAETVSSSVDKTYRARHPVFSTMFQQAQGDSGSLFADQDSSGAGVQVLGIVEDQSSLMPRYEPNHPAADANGYVYYPNVNVVEEMADMISASRAFQTNAEMMNTAKQMMQKVLTLGQ”, the “soluble on expression in E. coli” value is reported as “not soluble”. For “MGSDKIHHHHHHMSLEHFFRDELTYLRLQGREFAKAHPELTRFLSEQTTDPDVERLLEGFAFLTGSLRAKIEDEFPELTHGLLGMLWPNYLRPVPSMTIMQFSVHPGAIAQPAFVARGCELDSLPIDDVVCHFQTCHDAWIYPADIREIKVQSGNDLSTITLDIGLHGPLSLSDLQLDKLRFYLGGDTYTAYELYFWIASQLSHIELEVDGQRFRQEASVLKTVGFEREDALLPYPGNVYSGYRILQEYFCFPESFLFFQLAGAVWPDLPLTVTEFRLHFCFDRPLPAELKIRPDSFMFNCVPAINLFQHDSEPINLSGRQTDYPLKASYRNADSFEIFSVDKVEGWVEGNSGRSRGIPRTYQPFESFQHQIERAKGRLALYYRIRVREAINGNGFDHMLSFVRGDEQEVIDLDESISVTLTCTNRSRAAQLSVGAICVPTGNSPSFATFRNLVRPTRPLRPAMDGSLHWTLISNLSLNYVSLLRRDALVQILRTYDFPALHDKQAEQASRKRLAGIESIETTPIDRLVQGMPVRGLKSILSVRQSAFSSEGELYLFSTVLAHFFSLYASVNAFHLLEVVNIDNKERYRWPVQIGQHSMM”, the “soluble on expression in E. coli” value was “not soluble”. In the case of “MGSDKIHHHHHHMSLLINLSFILTKPTGTTTYAFNLLPHLKPLQPTLLTSQYFPNYNSYQTPVNQTSEQGIKGHLRRLRWTQFKLPKIYNNLKSSLLFSPLPEAPLYTNCRFVITSFDMIPLRFPKRFSPLIPYHRYYTPQVLKQAQHIICISQTTAEDITNFYGIPANKITPILLAYDRTHFRPLNLATRNYFLYIGRQEPYKNIQRLLAAFAALPNHKDYELWLVGPSDLRYTPTLKTQVEELSITNQVKFLDYVPYSELPKIINEAIALVFPSLWEGFGLPVLEAMACGTPVITSNLSSLPEVAGDAAILIDPYNTVEITEAMQVIATNSALRSHLSSQGIIHCQQFSWEKTAKATAEVLSRYM”, the “soluble on expression in E. coli” value is reported as “not soluble”.
